{"source": "patent US20260209294A1", "about": "“USE OF RECOMBINANT PROTEIN IN PREPARING DRUG FOR INHIBITING ANEURYSM” (HUAZHONG UNIVERSITY OF SCIENCE AND TECHNOLOGY, priority 2022, published 2026)", "molecules": {"B1": {"name": "AGGF1 protein: recombinant human AGGF1 protein with His tag, SEQ ID NO:1, expressed from pet28-AGGF1 in Escherichia coli BL21 (DE3) (protein, listed as Homo sapiens)", "chain": "MASEAPSPPRSPPPPTSPEPELAQLRRKVEKLERELRSCKRQVREIEKLLHHTERLYQNAESNNQELRTQVEELSKILQRGRNEDNKKSDVEVQTENHAPWSISDYFYQTYYNDVSLPNKVTELSDQQDQAIETSILNSKDHLQVENDAYPGTDRTENVKYRQVDHFASNSQEPASALATEDTSLEGSSLAESLRAAAEAAVSQTGFSYDENTGLYFDHSTGFYYDSENQLYYDPSTGIYYYCDVESGRYQFHSRVDLQPYPTSSTKQSKDKKLKKKRKDPDSSATNEEKDLNSEDQKAFSVEHTSCNEEENFANMKKKAKIGIHHKNSPPKVTVPTSGNTIESPLHENISNSTSFKDEKIMETDSEPEEGEITDSQTEDSYDEAITSEGNVTAEDSEDEDEDKIWPPCIRVIVIRSPVLQIGSLFIITAVNPATIGREKDMEHTLRIPEVGVSKFHAEIYFDHDLQSYVLVDQGSQNGTIVNGKQILQPKTKCDPYVLEHGDEVKIGETVLSFHIHPGSDTCDGCEPGQVRAHLRLDKKDESFVGPTLSKEEKELERRKELKKIRVKYGLQNTEYEDEKTLKNPKYKDRAGKRREQVGSEGTFQRDDAPASVHSEITDSNKGRKMLEKMGWKKGEGLGKDGGGMKTPIQLQLRRTHAGLGTGKPSSFEDVHLLQNKNKKNWDKARERFTENFPETKPQKDDPGTMPWVKGTLE", "modifications": "His tag"}}, "key": {"[1]": {"system": "TAC-induced mouse aneurysm model", "test": "TAC (transverse aortic constriction)-induced aneurysm model, i.p. recombinant AGGF1 or AGGF1-RDDdel protein", "assay_type": "in vivo, C57BL/6 mice", "description": "RCAs are harvested after 21 days for the histological staining. […] The bar graphs at the bottom show the intima thickness (1st graph), the adventitia thickness (2nd graph), the total arterial wall thickness (3rd graph), a media cell density (4th graph), and the adventitia cell density (5th graph). […] The bar graphs on the right show the percentage of the collagen area and the percentage of the α-SMA positive area. * P<0.05; **, P<0.01; ***, P<0.001; a mouse sample size n=6/group.\nRCAs are harvested after 21 days for the histological staining and the western blot analysis. […] Bar graphs below show the percentage of the MCP1-positive cell area and the CD68-positive cell area. […] The β-actin serves as a loading control. […] The β-actin serves as a loading control. *, P<0.05; **, P<0.01; *** P<0.001; a mouse sample size n=6/group, other sample sizes n=4/group.\nThe bar graph on the right illustrates the luminal diameter of the ascending aorta. An ascending aortic tissue is harvested after 21 days for the histological staining. […] The bar graphs below display the intimal thickness (1st graph), the adventitia thickness (2nd graph), the total arterial wall thickness (3rd graph), the medial cell density (4th graph), and the adventitia cell density (5th graph). *, P<0.05; **, P<0.01; ***, P<0.001; a mouse sample size n=6/group.\nThe ascending aortic tissue is harvested for the histological staining 21 days after the surgery. […] Below are quantitative bar graphs showing the quantitation of the percentage of the positive area for each corresponding stain. *, P<0.05; **, P<0.01; *** P<0.001; a mouse sample size n≥6/group.\nFIG. 7 depicts that the intraperitoneal injection of the purified human AGGF1 protein, dependent on the RDD sequence, attenuates a TAC-induced ascending aortic TGF-β1 maturation and a signaling pathway, as well as the ERK1/2 signaling pathway. The RCAs are harvested after 21 days for the western blot analysis. […] The β-actin serves as a loading control. […] The β-actin serves as a loading control. *, P<0.05; **, P<0.01; ***, P<0.001; sample size n=4/group.\nThe research team obtained blood vessel samples from the thoracic aorta of 8 normal individuals and 8 patients with the thoracic aortic aneurysm from the hospital. […] Subsequently, the research divided C57BL/6 mice into 6 groups: after sham surgery, they were divided into a buffer group, an AGGF1 group, and an AGGF1-RDD^del group (Sham+buffer, Sham+AGGF1, Sham+AGGF1-RDD^del), and after the TAC surgery, they were divided into a buffer group, an AGGF1 group, and an AGGF1-RDD^del group (TAC+buffer, TAC+AGGF1, TAC+AGGF1-RDD^del), with each group having mice ≥6. Buffer was protein elution solution. 21 days after the TAC surgery, Doppler ultrasound was used to detect vascular luminal diameter, and carotid artery and aorta were collected for histological staining and Western blot to evaluate the effect of AGGF1. Starting from the second day after the surgery, recombinant AGGF1 protein or AGGF1-RDD^del protein was administered through intraperitoneal injection in the mice, with the same dose of EB as control, once every 2 days for 3 weeks. The protein dosage was 0.5 mg/kg."}, "[2]": {"molecular_target": "T1, integrin α7 / LAP-TGF-β1 interaction (Homo sapiens, UniProt Q13683)", "T1 construct": "FLAG; GFP; expressed in transfected cells; host or cells: HEK293T", "T1 sequence (Q13683 34-1181)": "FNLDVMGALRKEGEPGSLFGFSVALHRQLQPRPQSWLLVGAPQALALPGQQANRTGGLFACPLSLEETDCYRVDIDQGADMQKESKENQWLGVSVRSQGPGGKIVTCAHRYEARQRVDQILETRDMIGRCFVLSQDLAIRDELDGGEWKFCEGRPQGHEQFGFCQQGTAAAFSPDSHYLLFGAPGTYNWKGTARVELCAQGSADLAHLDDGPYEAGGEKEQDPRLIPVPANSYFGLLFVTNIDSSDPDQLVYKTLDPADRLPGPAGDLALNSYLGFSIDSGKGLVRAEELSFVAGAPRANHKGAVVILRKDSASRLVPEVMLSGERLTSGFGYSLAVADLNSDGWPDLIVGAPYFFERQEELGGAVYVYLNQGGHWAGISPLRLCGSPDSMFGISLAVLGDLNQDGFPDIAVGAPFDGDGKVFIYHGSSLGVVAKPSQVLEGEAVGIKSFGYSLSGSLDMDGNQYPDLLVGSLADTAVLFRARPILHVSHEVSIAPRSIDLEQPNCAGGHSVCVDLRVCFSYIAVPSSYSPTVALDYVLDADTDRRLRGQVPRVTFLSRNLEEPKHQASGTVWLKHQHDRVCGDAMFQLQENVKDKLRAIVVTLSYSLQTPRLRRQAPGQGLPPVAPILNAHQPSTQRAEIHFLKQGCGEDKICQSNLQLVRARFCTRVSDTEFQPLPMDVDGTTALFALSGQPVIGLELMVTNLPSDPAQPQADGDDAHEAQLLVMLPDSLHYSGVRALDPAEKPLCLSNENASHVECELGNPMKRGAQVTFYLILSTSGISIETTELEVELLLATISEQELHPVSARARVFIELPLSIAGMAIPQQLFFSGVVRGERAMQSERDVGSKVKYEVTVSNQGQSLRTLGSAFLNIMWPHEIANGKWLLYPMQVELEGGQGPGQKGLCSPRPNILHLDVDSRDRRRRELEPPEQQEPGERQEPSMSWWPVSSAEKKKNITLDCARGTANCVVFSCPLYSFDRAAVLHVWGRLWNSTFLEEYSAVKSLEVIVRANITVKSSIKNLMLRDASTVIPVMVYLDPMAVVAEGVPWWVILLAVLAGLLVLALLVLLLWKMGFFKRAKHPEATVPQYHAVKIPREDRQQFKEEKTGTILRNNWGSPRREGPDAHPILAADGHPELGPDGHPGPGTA", "T1 sequence (P05556 21-798 partner)": "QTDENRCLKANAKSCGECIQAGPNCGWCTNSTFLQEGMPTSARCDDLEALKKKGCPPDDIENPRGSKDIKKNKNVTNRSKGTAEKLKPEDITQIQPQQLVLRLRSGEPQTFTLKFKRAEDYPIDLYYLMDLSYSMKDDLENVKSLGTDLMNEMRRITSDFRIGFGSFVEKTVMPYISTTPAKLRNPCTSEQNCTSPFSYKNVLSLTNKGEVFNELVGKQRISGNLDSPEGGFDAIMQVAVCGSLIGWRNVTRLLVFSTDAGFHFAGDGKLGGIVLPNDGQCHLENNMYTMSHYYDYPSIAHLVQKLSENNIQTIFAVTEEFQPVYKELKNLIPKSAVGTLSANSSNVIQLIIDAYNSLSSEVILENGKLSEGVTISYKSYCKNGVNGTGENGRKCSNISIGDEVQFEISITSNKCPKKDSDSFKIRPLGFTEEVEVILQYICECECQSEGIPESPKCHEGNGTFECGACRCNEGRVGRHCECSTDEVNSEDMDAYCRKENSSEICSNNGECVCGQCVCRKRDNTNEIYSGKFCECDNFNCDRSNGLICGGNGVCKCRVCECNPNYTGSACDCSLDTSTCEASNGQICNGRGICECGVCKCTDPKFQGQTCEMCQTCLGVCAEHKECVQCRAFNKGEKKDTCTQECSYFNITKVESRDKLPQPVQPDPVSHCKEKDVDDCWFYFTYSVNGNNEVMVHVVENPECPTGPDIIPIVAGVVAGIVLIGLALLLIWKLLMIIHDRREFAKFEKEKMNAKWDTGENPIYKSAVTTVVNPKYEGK", "test": "Co-IP of LAP-TGF-β1-GFP and integrin α7-FLAG in HEK293T cells", "assay_type": "cell-based", "settings": "AGGF1 overexpression or stimulation for 24 hours", "description": "FIG. 10 illustrates that the integrin α7 interacts with LAP-TGF-β1 via an RGD sequence, and AGGF1 enhances this interaction. […] Quantitative data of a LAP-TGF-β1-GFP/α7-FLAG ratio are plotted as bar graphs on the right. […] Quantitative data of the LAP-TGF-β1-GFP/α7-FLAG ratio are plotted as bar graphs on the right. *, P<0.05; **, P<0.01; ***, P<0.001; n=3/group."}, "[3]": {"system": "aortic aneurysm induced by Fbn1^C1041G/+ mutation", "test": "AGGF1 treatment of spontaneous aortic aneurysm in Fbn1 C1041G/+ mutant mice", "assay_type": "in vivo", "description": "FIG. 13 depicts an AGGF1 treatment for a spontaneous aortic aneurysm in FbnC1041G/+ mutant mice. […] The bar graph on the right illustrates the luminal diameter of the ascending aortic. […] The GAPDH serves as a loading control. […] The bar graphs on the right indicate the percentage of the positive area for the respective immunostaining quantification. *, P<0.05; **, P<0.01; ***, P<0.001; n=8/group for mouse studies, other sample sizes n=4/group.\nThe present disclosure obtained the previously published Fbn1^C1041G/+ mutant mice from Tongji Hospital. Compared with the wild-type mice, we detected spontaneous aortic expansion in these mice at week 10, resulting in the aortic aneurysm. After obtaining these mice, at week 10, mice were intraperitoneally injected with Buffer or AGGF1 protein, and the injection continued until week 18. At week 18, mice underwent ultrasound examination, then were euthanized and their aortas were collected for Western Blotting experiments and histochemical staining."}, "[4]": {"system": "BAPN-induced aortic aneurysm", "test": "β-aminopropionitrile (BAPN)-induced aortic aneurysm model", "assay_type": "in vivo, C57BL/6 male mice", "settings": "BAPN-fed mice", "description": "FIG. 14 depicts an AGGF1 treatment for a β-aminopropionitrile (BAPN)-induced aortic aneurysm. […] The bar graphs below show the intimal thickness (1st image), the adventitia thickness (2nd image), and the total carotid artery wall thickness (3rd image). […] The bar graphs on the right show the percentage of the positive area for respective immunostaining quantifications. […] The GAPDH serves as a loading control. *, P<0.05; **, P<0.01; ***, P<0.001; n≥8/group for mouse studies, other sample sizes n=4/group.\nβ-aminopropionitrile is a lysyl oxidase (LOX) inhibitor that is readily soluble in water. Three-week-old mice fed with 0.25% BAPN have a very high incidence of the thoracic aortic aneurysm after 4 weeks. Three-week-old C57BL/6 male mice were divided into 4 groups, with ultrasound detection of the aorta on day 28, followed by euthanasia and collection of the aorta for Western Blotting experiments and histochemical staining."}, "[5]": {"settings": "after TAC vs buffer, 0.5 mg/kg i.p. once every 2 days for 3 weeks, day 21"}, "[6]": {"settings": "after TAC, 0.5 mg/kg i.p., day 21"}, "[7]": {"settings": "regardless of sham or TAC surgery, 0.5 mg/kg i.p."}}, "data": [{"molecule": "B1", "values": [{"measurement": "ascending aortic expansion (FIG. 5)", "setting": "[1]; TAC, 0.5 mg/kg i.p., day 21", "result": "significantly inhibit"}, {"measurement": "vascular thickening (H&E staining, ascending aorta, FIG. 5)", "setting": "[1]; TAC, 0.5 mg/kg i.p., day 21", "result": "significantly inhibit"}, {"measurement": "vascular expansion (right carotid artery, FIG. 3)", "setting": "[1]; [5]", "result": "significantly inhibit"}, {"measurement": "vascular remodeling (right carotid artery, FIG. 3)", "setting": "[1]; [5]", "result": "significantly inhibit"}, {"measurement": "vascular inflammation (MCP-1, CD68; right carotid artery, FIG. 4)", "setting": "[1]; after TAC vs buffer, 0.5 mg/kg i.p., day 21", "result": "significantly inhibit"}, {"measurement": "inflammation of the ascending aorta (FIG. 6)", "setting": "[1]; [6]", "result": "inhibited"}, {"measurement": "remodeling of the ascending aorta (FIG. 6)", "setting": "[1]; [6]", "result": "inhibited"}, {"measurement": "level of the mature TGFβ1 (Western blot, RCA, FIG. 4)", "setting": "[1]; [7]", "result": "inhibit"}, {"measurement": "p-ERK1/2 (Western blot, RCA, FIG. 4)", "setting": "[1]; [7]", "result": "inhibit"}, {"measurement": "p-Smad3 (Western blot, RCA, FIG. 4)", "setting": "[1]; [7]", "result": "inhibit"}, {"measurement": "effect on the carotid artery and aorta", "setting": "[1]; sham group, 0.5 mg/kg i.p. once every 2 days for 3 weeks", "result": "little effect"}, {"measurement": "interaction of integrin α7 with LAP-TGF-β1 (LAP-TGF-β1-GFP/α7-FLAG ratio)", "setting": "[2]", "result": "enhances"}, {"measurement": "expansion of the ascending aorta", "setting": "[3]; i.p. from week 10 to week 18, ultrasound at week 18", "result": "significantly inhibit"}, {"measurement": "increase in αSMA/CD68/MCP1 levels (immunostaining positive areas)", "setting": "[3]; week 18", "result": "significantly inhibit"}, {"measurement": "level of mature TGFβ1 (Western blot, ascending aorta)", "setting": "[3]; week 18", "result": "inhibited"}, {"measurement": "p-ERK (Western blot, ascending aorta)", "setting": "[3]; week 18", "result": "inhibited"}, {"measurement": "p-Smad2 (Western blot, ascending aorta)", "setting": "[3]; week 18", "result": "inhibited"}, {"measurement": "p-Smad3 (Western blot, ascending aorta)", "setting": "[3]; week 18", "result": "inhibited"}, {"measurement": "thickening of the vascular media", "setting": "[3]; week 18", "result": "significantly inhibit"}, {"measurement": "incidence of BAPN-induced aortic dissection", "setting": "[4]", "result": "no effect"}, {"measurement": "level of the mature TGFβ1 (Western blot, ascending aorta)", "setting": "[4]", "result": "inhibited"}, {"measurement": "p-ERK (Western blot, ascending aorta)", "setting": "[4]", "result": "inhibited"}, {"measurement": "p-Smad2 (Western blot, ascending aorta)", "setting": "[4]", "result": "inhibited"}, {"measurement": "p-Smad3 (Western blot, ascending aorta)", "setting": "[4]", "result": "inhibited"}, {"measurement": "survival rate of aneurysm model mice", "setting": "[4]", "result": "significantly improve"}, {"measurement": "aortic inflammation", "setting": "[4]; day 28", "result": "significantly inhibited"}, {"measurement": "aortic remodeling", "setting": "[4]; day 28", "result": "significantly inhibited"}, {"measurement": "aortic thickening (H&E staining)", "setting": "[4]; day 28", "result": "significantly inhibited"}, {"measurement": "vascular expansion (ascending aorta, ultrasound)", "setting": "[4]; day 28", "result": "inhibitory effect"}]}]}
